# Source: patent US20110124556 (published 2011)
# Residue numbers refer to the chain shown, from its start. Non-standard residues stand in square brackets, D forms with d. No end group written: not given here. Tic = O=C(O)[C@@H]1Cc2ccccc2CN1; Ac6c = NC1(C(=O)O)CCCCC1; βturn = not defined here
# B1: S167 (peptide)
# chain: AFYDWFAKK
# B2: S113 (peptide)
# chain: AHENFYDWFVRQVSKK
# B3: S326 (G33) (peptide)
# chain: GIISQSCPESFYDWFAGQVSDPWWCW
# B4: S246 (peptide)
# chain 1: ACAWPTYWNCGGGGX
# chain 2: FHENFYDWFVRQVSKKX
# modifications: not fully specified; listing feature
# B5: S442 (peptide)
# chain 1: ESFYDWFERQLGGGGK
# chain 2: AWVQCEVYGRGCPS
# B6: S443 (peptide)
# chain 1: ESFYDWFERQLGGGGK
# chain 2: WVQCEVYGRGCPS
# B7: S231 (peptide)
# chain 1: FHENFYDWFVRQVSKKGGGX
# chain 2: FHENFYDWFVRQVSKKGGGX
# modifications: listing feature
# B8: S580 (peptide)
# chain 1: SLEEEWAQVECEVYGRGC-βturn
# chain 2: ESFYDWFERQLG
# modifications: not fully specified (bridges); printed as SLEEEWAQVECEVYGRGC-βturn-ESFYDWFERQLG; ends and bridges not checked; also: chain 1 continues via βturn into chain 2 (C-N fusion)
# B9: S439 (peptide)
# chain 1: ESFYDWFERQLGGGGK
# chain 2: QEWAWVQCEVYGRGCPS
# B10: S438 (peptide)
# chain 1: ESFYDWFERQLGGGGK
# chain 2: DQEWAWVQCEVYGRGCPS
# B11: S570 (peptide)
# chain: SLEEEWAQIEEVWGRPSESFYDWFERQLG
# B12: S229 (peptide)
# chain 1: SDGFYNAIELLSX
# chain 2: KHLCVLEELFWGASLFGYCSGKKX
# modifications: not fully specified; listing feature
# B13: S259 (peptide)
# chain: EGWDFYSYFSGLLASVT
# B14: S574 (peptide)
# chain: SLEEEWAQIEAEVWGRGAPSESFYDWFERQLG
# B15: S554 (peptide)
# chain: B14 chain with A11C, W14Y, A18C
# B16: S273 (peptide)
# chain: FHENFYDWFVRQVSKKXXSDGFYNAIELLS
# modifications: not fully specified; listing feature
# B17: S379 (peptide)
# chain 1: GSLDESFYDWFERQLGKKKX
# chain 2: GSLDESFYDWFERQLGKKKX
# modifications: not fully specified; listing feature
# B18: S569 (peptide)
# chain: SLEEEWAQIEEVWGRGPSESFYDWFERQLG
# B19: S107 (peptide)
# chain: FHENFYDWFVRAVSKK
# B20: S510 (peptide)
# chain: SLEEEWAQVECEVYGRGCPSGGSGGSGLLDESFYHWFDRQLR
# B21: S251 (peptide)
# chain: GRVDWLQRNANFYDWFV
# B22: S549 (peptide)
# chain: SLEEEWAQVECEVYGRGCSGSLDESFYDWFERQLG
# B23: S527 (peptide)
# chain 1: H[Ac6c]CAQE[dW]GSEL
# chain 2: [Tic]QCSGSESFYDWFERQL
# modifications: not fully specified; printed as H-Acy-CAQEwGSEL-Tic-QCSGSESFYDWFERQL; ends and bridges not checked
# B24: S550 (peptide)
# chain: GSLDESFYDWFERQLGXK
# modifications: listing feature
# B25: S537 (peptide)
# chain: SLEHEWAQVECEVYGRGCPSGSLDESFYDWFERQLG
# B26: S542 (peptide)
# chain: B25 chain with H4E, D29H
# B27: S541 (peptide)
# chain: B25 chain with H4E, Y14W
# B28: S540 (peptide)
# chain: B25 chain with H4E, E10K
# B29: S539 (printed S519) (peptide)
# chain: B25 chain with H4L
# B30: S538 (peptide)
# chain: B25 chain with H4Q
# B31: S564 (peptide)
# chain: SLEEEWAQIQCEVWGRCSESFYDWFERQL
# B32: S243 (peptide)
# chain: NFYDWFVAELG
# B33: S122 (peptide)
# chain: HPTSKEIYAKLLK
# B34: S220 (peptide)
# chain: FHENFADWFVRQVSKK
# B35: S548 (peptide)
# chain: SLEEEWAQVECEVWGRGCPS
# B36: S593 (peptide)
# chain: SIEEEWAQIKCDVWGRGCPSY
# B37: S315 (peptide)
# chain: WFYDWFWE
# B38: S301 (peptide)
# chain 1: XDWLQRNANFYDWFVAEL
# chain 2: XDWLQRNANFYDWFVAEL
# modifications: listing feature
# B39: S595 (peptide)
# chain: LEEEWAQIQREVWHSPASESFYDWFERQL
# B40: S263 (D8B12) (peptide)
# chain: WLEQERAWIWCEIQGSGCRA
# B41: S531 (peptide)
# chain: SLEEEWAQVECEVYGRGCPSFYDWFERQL
# B42: S177 (peptide)
# chain: EHWNTVDPFYFTLFEWLRESG
# B43: S562 (peptide)
# chain: SIEEEWAQIKCDVWGRCSESFYDWFERQL
# B44: S534 (peptide)
# chain: SLEEEWAWVQCEVYGRGCPSESFYDWFERQL
# B45: S530 (peptide)
# chain: B44 chain with W8Q, Q10E
# B46: S557 (peptide)
# chain: B44 chain with W8Q, V9I, Q10E
# modifications: not fully specified (N-terminus); ends and bridges not checked
# B47: S596 (peptide)
# chain: SLEEEWAQIQHELYGPAESESFYDWFERQL
# B48: S118 (peptide)
# chain: SDGFYNAIELLS
# B49: S597 (peptide)
# chain: Ac-SLEEEWAQIECEVYGRGCPSESFYDWFERQL
# modifications: ends and bridges not checked
# B50: S392 (peptide)
# chain: FYDWFERQLG
# B51: S456 (peptide)
# chain 1: GSLDESFYDWFERQLGKK
# chain 2: XKEWLDQEWAWVQCEVYGRGCPSEE
# modifications: not fully specified; listing feature
# B52: S524 (peptide)
# chain: HHHHHHKSLEEEWAQVECEVYGRGCPSGSLDESFYDWFERQLG
# B53: S360 (peptide)
# chain 1: XDWLQRNANFYDWFVAEL
# chain 2: XDWLQRNANFYDWFVAEL
# modifications: listing feature
# B54: S571 (peptide)
# chain: SLEEEWAQIEEVWGRGSESFYDWFERQLG
# B55: S218 (peptide)
# chain 1: AFYDWFAKKX
# chain 2: AFYDWFAKKX
# modifications: listing feature
# B56: S560 (peptide)
# chain: SLEEEWAQIECEVWGRGCPSGSLDESFYDWFERQL
# B57: S121 (peptide)
# chain: NSFYEALRMLSSK
# B58: S368 (peptide)
# chain: RGTRSDPFYHKLSELLQGH
# B59: S453 (peptide)
# chain: GSLDESFYDWFERQLGKKKXXKEWLDQEWAWVQCEVYGRGCPSEE
# modifications: not fully specified (residues 19, 20, 21); printed as GSLDESFYDWFERQLGKKK-Ald-17-Ald-KEWLDQEWAWVQCEVYGRGCPSEE; cysteine pairing not given here; also: two peptides (1-19 and 22-45) joined by linker 17 between the Ald group on K19 and an N-terminal Ald on the second peptide
# Biological target: human insulin receptor (HIR) (human, UniProt P06213)
# Assay: competition
row,Binder,Kd [nM]
1,B1,> 2000
2,B2,590
3,B3,590
4,B4,50
5,B5,160
6,B6,170
7,B7,270
8,B8,0.012
9,B9,46
10,B10,30
11,B11,0.73
12,B12,4.4
13,B13,7700
14,B14,0.0092
15,B15,0.0064
16,B16,15
17,B17,56
18,B18,0.15
19,B19,1000
20,B20,0.062

row,Binder,Kd [nM]
1,B21,56000
2,B22,0.013
3,B23,2.4
4,B24,40
5,B25,0.044
6,B26,0.027
7,B27,0.0078
8,B28,0.013
9,B29,0.098
10,B30,0.038
11,B31,0.013
12,B32,2000
13,B33,93
14,B34,> 2000
15,B35,4.1
16,B36,2.2
17,B37,68
18,B38,640
19,B39,0.62
20,B40,> 20000

row,Binder,Kd [nM]
1,B41,0.075
2,B42,27000
3,B43,0.018
4,B44,0.01
5,B45,0.008
6,B46,0.02
7,B47,0.045
8,B48,24000
9,B49,0.0085
10,B50,38
11,B51,2.4
12,B52,0.011
13,B53,990
14,B54,1.8
15,B55,11000
16,B56,0.014
17,B57,31
18,B58,> 20000
19,B59,0.57
